Columns and labels:
HcKCR2 = biological target: T1, HcKCR2 (Hyphochytrium catenoides, UniProt Z9CM73ZIR3); assay: cryo-EM structure; type: binding; conditions: dark state, nanodisc, pH 7.5; covalent Schiff base to K233; 6-s-cis conformer
T1 construct: M1-D265; MSP1E3D1/SoyPC nanodisc; residues 2-260 modelled (initiator Met lost); homotrimer
T1 sequence (Z9CM73ZIR3 1-265): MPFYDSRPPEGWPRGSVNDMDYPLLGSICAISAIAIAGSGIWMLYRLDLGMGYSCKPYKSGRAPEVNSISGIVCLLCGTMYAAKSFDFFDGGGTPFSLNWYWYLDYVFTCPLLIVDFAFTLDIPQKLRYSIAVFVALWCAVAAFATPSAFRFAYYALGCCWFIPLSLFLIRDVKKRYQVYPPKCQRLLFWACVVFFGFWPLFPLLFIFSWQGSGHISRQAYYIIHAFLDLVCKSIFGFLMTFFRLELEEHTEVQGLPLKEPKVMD

[1] = biological target: HcKCR1 WT (K+-selective channelrhodopsin 1 from Hyphochytrium catenoides) (Hyphochytrium catenoides); assay: cryo-EM structure; dark state; protein in MSP1E3D1/SoyPC nanodiscs, 20 mM HEPES-NaOH pH 7.5, 100 mM NaCl; C3 symmetry
[2] = biological target: HcKCR2 WT (K+-selective channelrhodopsin 2 from Hyphochytrium catenoides) (Hyphochytrium catenoides); assay: as above

In the case of CC1=C(/C=C/C(C)=C/C=C/C(C)=C/C=O)C(C)(C)CCC1 [all-trans-retinal], the cryo-EM structure (HcKCR2) is reported as “HcKCR2 thus represents the initial naturally occurring microbial rhodopsin with experimentally demonstrated 6-s-cis-retinal configuration”.

Work on “HcKCR1 WT (K+-selective channelrhodopsin 1 from Hyphochytrium catenoides) (domain or fragment)” yielded a stoichiometry N [1] of 3.

For “HcKCR2 WT (K+-selective channelrhodopsin 2 from Hyphochytrium catenoides) (domain or fragment)”, the stoichiometry N [2] was 3.

— paper PMC7615185, “Structural basis for ion selectivity in potassium-selective channelrhodopsins” (Cell, 2023)
